T1: RANK (Receptor Activator of NF-kappa B) on primary murine cells (murine, UniProt O35305 31-625)
T1 construct: whole, on cells; Endogenous receptor on the cells
T1 sequence (looked up): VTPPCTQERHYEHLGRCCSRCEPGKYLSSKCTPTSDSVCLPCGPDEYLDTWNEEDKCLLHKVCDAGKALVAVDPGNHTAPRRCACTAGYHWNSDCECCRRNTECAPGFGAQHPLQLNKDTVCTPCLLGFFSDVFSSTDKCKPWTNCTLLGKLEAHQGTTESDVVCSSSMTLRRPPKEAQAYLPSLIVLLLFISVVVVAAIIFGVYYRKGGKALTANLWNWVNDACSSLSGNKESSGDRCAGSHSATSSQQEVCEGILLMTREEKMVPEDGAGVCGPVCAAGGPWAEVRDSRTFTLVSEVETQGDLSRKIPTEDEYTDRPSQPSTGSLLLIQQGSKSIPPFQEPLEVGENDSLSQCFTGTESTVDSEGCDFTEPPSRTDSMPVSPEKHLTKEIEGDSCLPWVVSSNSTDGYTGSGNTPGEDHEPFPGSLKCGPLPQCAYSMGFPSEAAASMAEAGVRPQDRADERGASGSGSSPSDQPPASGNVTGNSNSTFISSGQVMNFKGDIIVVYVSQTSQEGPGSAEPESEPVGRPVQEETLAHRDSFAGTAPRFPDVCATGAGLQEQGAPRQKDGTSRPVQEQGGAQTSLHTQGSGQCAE

B1: GST-RANKL fusion protein (glutathione S-transferase fused N-terminally to murine RANKL residues 158-316) (ligand)
chain: KPEAQPFAHLTINAASIPSGSHKVTLSSWYHDRGWAKISNMTLSNGKLRVNQDGFYYLYANICFRHHETSGSVPTDYLQLMVYVVKTSIKIPSSHNLMKGGSTKNWSGNSEFHFYSINVGGFFKLRAGEEISIQVSNPSLLDPDQDATYFGAFKVQDID
notes: By size exclusion it is a polydisperse mixture of mono-trimeric (1 n) and oligomeric (2-100 n) units; also called oligomeric GST-RANKL; not shown: vector-encoded linker with protease site between GST and the SalI cloning site
B2: cleaved RANKL (murine RANKL residues 158-316 with GST removed by rhinovirus 3C protease) (ligand)
chain: B1 chain
notes: It migrated as a single trimeric species (1 n) in gel filtration; also called RANKL alone

Biological target: T1, RANK (Receptor Activator of NF-kappa B) …
Test: confocal microscopy of primary murine osteoblasts exposed to 5 nM ligand, RANK stained with anti-RANK antibody
Method: Primary murine osteoblasts were maintained in α-MEM containing 10% fetal bovine serum, and cultured in MEM containing 15% FBS, 50 μM ascorbic acid, and 10 mM β-glycerophosphate for differentiation. Cells were maintained at 37° C. in a humidified atmosphere containing 6% CO₂, with daily replenishment of media and cytokines. Primary murine osteoblasts were cultured on coverslips in A-MEM containing 10% fetal bovine serum and treated with GST-RANKL or cleaved RANKL for the indicated times. For phospholipid membrane staining, cells were incubated for 20 minutes with Vybrant Dil lipophilic carbocyanine membrane fluorescent stain (Molecular Probes). Cells were fixed in 4% paraformaldehyde, permeabilized with 0.1% Triton-X, blocked with 1% BSA/0.2% nonfat dry milk in PBS, and stained for RANK with a polyclonal anti-RANK antibody. Serial optical sections were obtained using a Radiance2100 laser scanning confocal microscope (BioRad). Microscope settings were calibrated to black level values using cells stained with an isotypic Ig control. GST-RANKL was cleaved as described in Example 12.
Primary osteoblasts in culture were exposed to 5 nM cleaved RANKL or GST-RANKL. […] Confocal microscopy was employed to localize RANK (green fluorescence) and the cell surface (red fluorescence). On the merged images, colocalization of RANK and the cell surface appears yellow (overlap of green and red fluorescence). […]

Row | Binder | binding result
1 | B1 | binds
2 | B2 | binds
